Laboratory results taken from patent US20230346961A1, “GLP-1 AND GIP RECEPTOR CO-AGONISTS” (Novo Nordisk A/S, priority 2020, published 2023).
Starred links: 1 amine or outer side, 2 acyl side, 3 side chain; linkers in the order of their positions; H or OH if unused. Non-standard residues stand in square brackets, D forms with d. Groups on a side chain read outwards from the residue. No end group written: not given here. *: point of attachment. C18 diacid = O=C(O)CCCCCCCCCCCCCCCCC(=O)*; γGlu = O=C(O)[C@H](CCC(=O)[*:2])N[*:1]; εLys = N[C@@H](CCCCN[*:1])C(=O)[*:2]; AEEA = NCCOCCOCC(=O)O; Aib = CC(C)(N)C(=O)O

Tests used:
Assay in all cases: cell-based or functional assay
[1] = biological target: T1, human glucose-dependent insulinotropic polypeptide receptor (human) (UniProt P48546)
T1 sequence (looked up): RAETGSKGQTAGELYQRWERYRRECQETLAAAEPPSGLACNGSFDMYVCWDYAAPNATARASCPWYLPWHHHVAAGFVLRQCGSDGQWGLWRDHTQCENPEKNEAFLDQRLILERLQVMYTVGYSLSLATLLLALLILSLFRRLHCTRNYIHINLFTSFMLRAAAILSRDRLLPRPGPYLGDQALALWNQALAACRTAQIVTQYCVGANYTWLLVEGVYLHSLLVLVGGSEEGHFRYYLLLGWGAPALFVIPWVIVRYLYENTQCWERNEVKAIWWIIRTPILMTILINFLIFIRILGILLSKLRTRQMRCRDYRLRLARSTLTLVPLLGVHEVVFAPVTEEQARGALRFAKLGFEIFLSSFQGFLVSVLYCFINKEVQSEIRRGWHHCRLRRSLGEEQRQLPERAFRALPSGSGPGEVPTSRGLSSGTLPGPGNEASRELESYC

[2] = biological target: T2, mouse glucose-dependent insulinotropic polypeptide receptor (mouse) (UniProt Q0P543)
T2 sequence (looked up): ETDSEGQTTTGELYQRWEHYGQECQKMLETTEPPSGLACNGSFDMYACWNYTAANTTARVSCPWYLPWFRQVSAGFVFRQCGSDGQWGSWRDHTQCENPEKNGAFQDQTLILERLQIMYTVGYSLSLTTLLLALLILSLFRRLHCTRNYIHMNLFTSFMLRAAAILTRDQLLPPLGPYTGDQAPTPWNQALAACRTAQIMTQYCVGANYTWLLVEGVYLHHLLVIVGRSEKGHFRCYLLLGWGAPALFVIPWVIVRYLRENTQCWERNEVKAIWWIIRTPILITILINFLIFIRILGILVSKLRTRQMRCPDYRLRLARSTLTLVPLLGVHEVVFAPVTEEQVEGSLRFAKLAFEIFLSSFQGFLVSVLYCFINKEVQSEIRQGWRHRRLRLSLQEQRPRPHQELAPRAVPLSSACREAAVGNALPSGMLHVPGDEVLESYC

[3] = biological target: T3, mouse glucose-dependent insulinotropic polypeptide receptor (mouse, UniProt Q0P543 19-460)
T3 sequence (looked up): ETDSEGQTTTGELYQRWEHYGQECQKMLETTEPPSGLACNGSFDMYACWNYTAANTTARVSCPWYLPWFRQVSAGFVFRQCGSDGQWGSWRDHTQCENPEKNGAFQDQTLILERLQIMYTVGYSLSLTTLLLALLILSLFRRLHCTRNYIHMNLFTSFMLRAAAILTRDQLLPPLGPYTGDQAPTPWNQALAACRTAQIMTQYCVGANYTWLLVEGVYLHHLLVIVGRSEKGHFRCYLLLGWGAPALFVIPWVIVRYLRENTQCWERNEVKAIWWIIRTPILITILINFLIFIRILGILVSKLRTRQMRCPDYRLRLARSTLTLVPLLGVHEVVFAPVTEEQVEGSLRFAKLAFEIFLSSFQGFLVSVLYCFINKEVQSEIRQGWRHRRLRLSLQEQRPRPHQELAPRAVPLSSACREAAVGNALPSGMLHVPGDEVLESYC

[4] = biological target: T4, mouse glucagon-like peptide 1 receptor (mouse, UniProt O35659 22-463)
T4 sequence (looked up): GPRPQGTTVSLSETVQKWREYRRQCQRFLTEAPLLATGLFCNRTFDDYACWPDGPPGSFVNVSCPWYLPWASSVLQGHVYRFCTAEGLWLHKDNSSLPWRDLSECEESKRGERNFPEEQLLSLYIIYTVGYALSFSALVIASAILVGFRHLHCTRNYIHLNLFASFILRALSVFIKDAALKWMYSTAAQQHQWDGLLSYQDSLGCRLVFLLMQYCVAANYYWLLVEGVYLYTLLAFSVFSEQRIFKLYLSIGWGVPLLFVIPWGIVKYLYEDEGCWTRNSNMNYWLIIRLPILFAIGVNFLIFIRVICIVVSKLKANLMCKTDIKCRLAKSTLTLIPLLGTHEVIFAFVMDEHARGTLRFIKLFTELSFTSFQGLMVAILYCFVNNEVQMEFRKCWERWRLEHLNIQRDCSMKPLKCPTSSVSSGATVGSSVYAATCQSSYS

[5] = biological target: human glucagon-like peptide 1 receptor (human, UniProt P43220 24-463)
[6] = biological target: T5, human glucose-dependent insulinotropic polypeptide receptor (human, UniProt P48546 22-466)
T5 sequence (looked up): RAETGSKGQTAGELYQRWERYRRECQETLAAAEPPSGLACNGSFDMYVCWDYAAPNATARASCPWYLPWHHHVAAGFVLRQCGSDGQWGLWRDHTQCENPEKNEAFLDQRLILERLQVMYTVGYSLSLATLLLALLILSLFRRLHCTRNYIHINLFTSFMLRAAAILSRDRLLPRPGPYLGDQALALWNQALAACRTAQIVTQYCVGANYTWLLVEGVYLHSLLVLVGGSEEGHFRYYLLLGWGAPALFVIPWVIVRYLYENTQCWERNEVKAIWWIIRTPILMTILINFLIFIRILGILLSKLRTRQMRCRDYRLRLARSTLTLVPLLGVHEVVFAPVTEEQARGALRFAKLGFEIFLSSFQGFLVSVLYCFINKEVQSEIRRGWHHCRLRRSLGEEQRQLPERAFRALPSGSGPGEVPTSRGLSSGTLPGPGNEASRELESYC

human glucagon receptor = human glucagon receptor (human, UniProt P47871 26-477)

Molecule	hGIPR, CRE Luc 0% HSA EC50 [1] [nM]	hGIPR, CRE Luc 1% HSA EC50 [1] [nM]	mGIPR, CRE Luc EC50 [2] [nM]	mGIPR, CRE Luc EC50 [3] [nM]	mGLP-1R, CRE Luc EC50 [4] [nM]	hGLP-1R, CRE Luc 0% HSA EC50 [5] [nM]	hGLP-1R, CRE Luc 1% HSA EC50 [5] [nM]	hGIPR, CRE Luc 0% HSA EC50 [6] [nM]	hGIPR, CRE Luc 1% HSA EC50 [6] [nM]	hGcgR, CRE Luc EC50 (human glucagon receptor) [nM]
human GIP (from UniProt P09681 52-93) (ligand)	0.0085	0.0038								
mouse GIP (from UniProt P48756 44-85) (ligand)			0.0354							
Y[Aib]EGTFTSDYSIYLDKQAA[Aib]K([γGlu-γGlu-γGlu-C18 diacid])FVNWLLAGGPSSGAPPPS-NH2 (N-terminus assumed; SMILES CC[C@H](C)[C@H](NC(=O)[C@H](CO)NC(=O)[C@H](Cc1ccc(O)cc1)NC(=O)[C@H](CC(=O)O)NC(=O)[C@H](CO)NC(=O)[C@@H](NC(=O)[C@H](Cc1ccccc1)NC(=O)[C@@H](NC(=O)CNC(=O)[C@H](CCC(=O)O)NC(=O)C(C)(C)NC(=O)[C@@H](N)Cc1ccc(O)cc1)[C@@H](C)O)[C@@H](C)O)C(=O)N[C@@H](Cc1ccc(O)cc1)C(=O)N[C@@H](CC(C)C)C(=O)N[C@@H](CC(=O)O)C(=O)N[C@@H](CCCCN)C(=O)N[C@@H](CCC(N)=O)C(=O)N[C@@H](C)C(=O)N[C@@H](C)C(=O)NC(C)(C)C(=O)N[C@@H](CCCCNC(=O)CC[C@H](NC(=O)CC[C@H](NC(=O)CC[C@H](NC(=O)CCCCCCCCCCCCCCCCC(=O)O)C(=O)O)C(=O)O)C(=O)O)C(=O)N[C@@H](Cc1ccccc1)C(=O)N[C@H](C(=O)N[C@@H](CC(N)=O)C(=O)N[C@@H](Cc1c[nH]c2ccccc12)C(=O)N[C@@H](CC(C)C)C(=O)N[C@@H](CC(C)C)C(=O)N[C@@H](C)C(=O)NCC(=O)NCC(=O)N1CCC[C@H]1C(=O)N[C@@H](CO)C(=O)N[C@@H](CO)C(=O)NCC(=O)N[C@@H](C)C(=O)N1CCC[C@H]1C(=O)N1CCC[C@H]1C(=O)N1CCC[C@H]1C(=O)N[C@@H](CO)C(N)=O)C(C)C) [Compound #6]				1.27	0.0023	0.0059	0.244	0.0081	0.101	
Ac-[dY]AEGTFTSDYSIYLDKQAA[Aib]K([AEEA-AEEA-γGlu-C18 diacid])FVNWLLAGGPSSGAPPPS-NH2 (SMILES CC[C@H](C)[C@H](NC(=O)[C@H](CO)NC(=O)[C@H](Cc1ccc(O)cc1)NC(=O)[C@H](CC(=O)O)NC(=O)[C@H](CO)NC(=O)[C@@H](NC(=O)[C@H](Cc1ccccc1)NC(=O)[C@@H](NC(=O)CNC(=O)[C@H](CCC(=O)O)NC(=O)[C@H](C)NC(=O)[C@@H](Cc1ccc(O)cc1)NC(C)=O)[C@@H](C)O)[C@@H](C)O)C(=O)N[C@@H](Cc1ccc(O)cc1)C(=O)N[C@@H](CC(C)C)C(=O)N[C@@H](CC(=O)O)C(=O)N[C@@H](CCCCN)C(=O)N[C@@H](CCC(N)=O)C(=O)N[C@@H](C)C(=O)N[C@@H](C)C(=O)NC(C)(C)C(=O)N[C@@H](CCCCNC(=O)COCCOCCNC(=O)COCCOCCNC(=O)CC[C@H](NC(=O)CCCCCCCCCCCCCCCCC(=O)O)C(=O)O)C(=O)N[C@@H](Cc1ccccc1)C(=O)N[C@H](C(=O)N[C@@H](CC(N)=O)C(=O)N[C@@H](Cc1c[nH]c2ccccc12)C(=O)N[C@@H](CC(C)C)C(=O)N[C@@H](CC(C)C)C(=O)N[C@@H](C)C(=O)NCC(=O)NCC(=O)N1CCC[C@H]1C(=O)N[C@@H](CO)C(=O)N[C@@H](CO)C(=O)NCC(=O)N[C@@H](C)C(=O)N1CCC[C@H]1C(=O)N1CCC[C@H]1C(=O)N1CCC[C@H]1C(=O)N[C@@H](CO)C(N)=O)C(C)C) [Compound #7]				0.0425	0.0174	0.0557	1.73	0.0033	0.0493	
Ac-[dY]AEGTFTSDYSIYLDKQAA[Aib]K([εLys-εLys-γGlu-C18 diacid])FVNWLLAGGPSSGAPPPS-NH2 (SMILES CC[C@H](C)[C@H](NC(=O)[C@H](CO)NC(=O)[C@H](Cc1ccc(O)cc1)NC(=O)[C@H](CC(=O)O)NC(=O)[C@H](CO)NC(=O)[C@@H](NC(=O)[C@H](Cc1ccccc1)NC(=O)[C@@H](NC(=O)CNC(=O)[C@H](CCC(=O)O)NC(=O)[C@H](C)NC(=O)[C@@H](Cc1ccc(O)cc1)NC(C)=O)[C@@H](C)O)[C@@H](C)O)C(=O)N[C@@H](Cc1ccc(O)cc1)C(=O)N[C@@H](CC(C)C)C(=O)N[C@@H](CC(=O)O)C(=O)N[C@@H](CCCCN)C(=O)N[C@@H](CCC(N)=O)C(=O)N[C@@H](C)C(=O)N[C@@H](C)C(=O)NC(C)(C)C(=O)N[C@@H](CCCCNC(=O)[C@@H](N)CCCCNC(=O)[C@@H](N)CCCCNC(=O)CC[C@H](NC(=O)CCCCCCCCCCCCCCCCC(=O)O)C(=O)O)C(=O)N[C@@H](Cc1ccccc1)C(=O)N[C@H](C(=O)N[C@@H](CC(N)=O)C(=O)N[C@@H](Cc1c[nH]c2ccccc12)C(=O)N[C@@H](CC(C)C)C(=O)N[C@@H](CC(C)C)C(=O)N[C@@H](C)C(=O)NCC(=O)NCC(=O)N1CCC[C@H]1C(=O)N[C@@H](CO)C(=O)N[C@@H](CO)C(=O)NCC(=O)N[C@@H](C)C(=O)N1CCC[C@H]1C(=O)N1CCC[C@H]1C(=O)N1CCC[C@H]1C(=O)N[C@@H](CO)C(N)=O)C(C)C) [Compound #8]				0.0233	0.017	0.0299	0.699	0.0047	0.0341	
Y[Aib]EGTFTSDYSIYLDKQAA[Aib]K([εLys-εLys-γGlu-C18 diacid])FVNWLLAGGPSSGAPPPS-NH2 (N-terminus assumed; SMILES CC[C@H](C)[C@H](NC(=O)[C@H](CO)NC(=O)[C@H](Cc1ccc(O)cc1)NC(=O)[C@H](CC(=O)O)NC(=O)[C@H](CO)NC(=O)[C@@H](NC(=O)[C@H](Cc1ccccc1)NC(=O)[C@@H](NC(=O)CNC(=O)[C@H](CCC(=O)O)NC(=O)C(C)(C)NC(=O)[C@@H](N)Cc1ccc(O)cc1)[C@@H](C)O)[C@@H](C)O)C(=O)N[C@@H](Cc1ccc(O)cc1)C(=O)N[C@@H](CC(C)C)C(=O)N[C@@H](CC(=O)O)C(=O)N[C@@H](CCCCN)C(=O)N[C@@H](CCC(N)=O)C(=O)N[C@@H](C)C(=O)N[C@@H](C)C(=O)NC(C)(C)C(=O)N[C@@H](CCCCNC(=O)[C@@H](N)CCCCNC(=O)[C@@H](N)CCCCNC(=O)CC[C@H](NC(=O)CCCCCCCCCCCCCCCCC(=O)O)C(=O)O)C(=O)N[C@@H](Cc1ccccc1)C(=O)N[C@H](C(=O)N[C@@H](CC(N)=O)C(=O)N[C@@H](Cc1c[nH]c2ccccc12)C(=O)N[C@@H](CC(C)C)C(=O)N[C@@H](CC(C)C)C(=O)N[C@@H](C)C(=O)NCC(=O)NCC(=O)N1CCC[C@H]1C(=O)N[C@@H](CO)C(=O)N[C@@H](CO)C(=O)NCC(=O)N[C@@H](C)C(=O)N1CCC[C@H]1C(=O)N1CCC[C@H]1C(=O)N1CCC[C@H]1C(=O)N[C@@H](CO)C(N)=O)C(C)C) [Compound #9]				0.068	0.0025	0.0067	0.11	0.0116	0.135	> 10
